Assay results: patent US20030103903A1

Biological target: IgE of unfractionated patient serum (pool of patients' sera known to be reactive to the epitope peptide) (human)
Assay: inhibition: whole patients' sera pre-incubated with soluble peptide, then probing solid-phase E1 peptide

QGLRGEEMEEMV [soluble form of the epitope peptide …]
amount of soluble peptide needed to completely inhibit binding: 70 µg
